Experimental data reported in PMC2761280.
Where two headings read alike, the source gives them in different places.

T1: POLGβ (his)10 (UniProt Q9UHN1 26-485)
T1 sequence: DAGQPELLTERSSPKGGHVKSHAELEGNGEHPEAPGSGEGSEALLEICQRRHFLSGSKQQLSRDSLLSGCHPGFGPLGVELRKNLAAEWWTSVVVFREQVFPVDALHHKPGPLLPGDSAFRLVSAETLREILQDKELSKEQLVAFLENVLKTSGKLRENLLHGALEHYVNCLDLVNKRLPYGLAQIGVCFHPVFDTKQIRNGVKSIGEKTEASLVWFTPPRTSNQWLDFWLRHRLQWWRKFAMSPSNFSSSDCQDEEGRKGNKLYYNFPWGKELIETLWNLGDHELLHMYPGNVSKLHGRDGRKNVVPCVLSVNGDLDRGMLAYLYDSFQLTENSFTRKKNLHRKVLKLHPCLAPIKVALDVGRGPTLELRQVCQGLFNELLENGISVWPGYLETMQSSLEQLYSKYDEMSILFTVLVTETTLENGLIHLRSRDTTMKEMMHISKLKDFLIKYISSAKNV


Columns and labels:
Assay in all cases: EMSA
POLGβ (his)10 [1] = target: T1, POLGβ (his)10
POLGα [2] = target: T2, POLGα (UniProt P54098 26-1239)
T2 sequence (P54098 26-1239): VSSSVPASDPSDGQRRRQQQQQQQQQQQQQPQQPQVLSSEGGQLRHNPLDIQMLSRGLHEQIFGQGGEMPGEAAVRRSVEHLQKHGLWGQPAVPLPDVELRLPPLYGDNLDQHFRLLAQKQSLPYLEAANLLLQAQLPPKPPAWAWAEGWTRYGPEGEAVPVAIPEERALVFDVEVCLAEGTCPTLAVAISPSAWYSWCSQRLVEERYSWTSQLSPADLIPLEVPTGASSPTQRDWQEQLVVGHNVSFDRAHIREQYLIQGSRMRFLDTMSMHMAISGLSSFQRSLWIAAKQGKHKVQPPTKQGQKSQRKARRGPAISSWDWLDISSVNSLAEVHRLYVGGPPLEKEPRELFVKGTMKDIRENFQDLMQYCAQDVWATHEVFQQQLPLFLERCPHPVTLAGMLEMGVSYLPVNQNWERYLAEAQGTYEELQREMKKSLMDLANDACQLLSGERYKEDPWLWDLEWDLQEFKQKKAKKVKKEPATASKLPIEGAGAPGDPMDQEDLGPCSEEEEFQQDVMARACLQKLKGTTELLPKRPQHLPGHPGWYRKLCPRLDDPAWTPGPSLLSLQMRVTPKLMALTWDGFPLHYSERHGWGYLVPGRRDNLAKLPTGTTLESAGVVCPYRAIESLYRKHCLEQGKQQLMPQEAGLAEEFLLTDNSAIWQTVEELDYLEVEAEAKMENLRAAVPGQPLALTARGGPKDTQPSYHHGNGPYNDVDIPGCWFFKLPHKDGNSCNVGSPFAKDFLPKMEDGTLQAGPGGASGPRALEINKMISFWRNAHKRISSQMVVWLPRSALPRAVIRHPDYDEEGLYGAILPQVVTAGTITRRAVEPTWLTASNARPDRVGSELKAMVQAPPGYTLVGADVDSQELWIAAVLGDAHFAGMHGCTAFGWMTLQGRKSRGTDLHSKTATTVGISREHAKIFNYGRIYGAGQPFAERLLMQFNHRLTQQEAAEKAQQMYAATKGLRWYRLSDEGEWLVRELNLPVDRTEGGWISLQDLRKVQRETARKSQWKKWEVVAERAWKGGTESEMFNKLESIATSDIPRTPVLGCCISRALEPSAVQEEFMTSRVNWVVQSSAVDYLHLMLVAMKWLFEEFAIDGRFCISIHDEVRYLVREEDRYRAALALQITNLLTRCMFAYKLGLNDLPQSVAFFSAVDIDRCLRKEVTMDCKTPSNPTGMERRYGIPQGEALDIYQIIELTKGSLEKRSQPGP

POLGα [3] = target: T2, POLGα; remark: listed apart in the source
POLGβ (his)10 [4] = target: T1, POLGβ (his)10; remark: listed apart in the source

Binder | binding result (POLGβ (his)10 [1]) | Kd (POLGα [2]) [µM] | binding result (POLGα [3]) | binding result (POLGβ (his)10 [4])
CCGGTCGTACGGAAAACCTGTATTTTCAGGGCT (ssDNA) [33-mer ss oligonucleotide] | no binding | 0.092 | – | –
oligonucleotide C (free ss oligo) (ssDNA) DNA: ACCGCTATGTATTTCGTACATTACTGCCAGCCACCATGAATATTGTACGGTACCATAAATACTTGACCACCTGTAGTACATAAAAACCCAATCCACATCAAAACCCCCTCCCCATGCTTA | – | – | binds | no binding
